Source: patent US20250262210A1 (TRUSTEES OF COLUMBIA UNIVERSITY IN THE CITY OF NEW YORK, published 2025)

How the values were obtained:
GTF3C2 = target: T1, GTF3C2 (human, UniProt Q8WUA4 1-911, limits assumed); assay: IP/MS, LZTR1 R810W-FLAG, U87
T1 sequence (looked up): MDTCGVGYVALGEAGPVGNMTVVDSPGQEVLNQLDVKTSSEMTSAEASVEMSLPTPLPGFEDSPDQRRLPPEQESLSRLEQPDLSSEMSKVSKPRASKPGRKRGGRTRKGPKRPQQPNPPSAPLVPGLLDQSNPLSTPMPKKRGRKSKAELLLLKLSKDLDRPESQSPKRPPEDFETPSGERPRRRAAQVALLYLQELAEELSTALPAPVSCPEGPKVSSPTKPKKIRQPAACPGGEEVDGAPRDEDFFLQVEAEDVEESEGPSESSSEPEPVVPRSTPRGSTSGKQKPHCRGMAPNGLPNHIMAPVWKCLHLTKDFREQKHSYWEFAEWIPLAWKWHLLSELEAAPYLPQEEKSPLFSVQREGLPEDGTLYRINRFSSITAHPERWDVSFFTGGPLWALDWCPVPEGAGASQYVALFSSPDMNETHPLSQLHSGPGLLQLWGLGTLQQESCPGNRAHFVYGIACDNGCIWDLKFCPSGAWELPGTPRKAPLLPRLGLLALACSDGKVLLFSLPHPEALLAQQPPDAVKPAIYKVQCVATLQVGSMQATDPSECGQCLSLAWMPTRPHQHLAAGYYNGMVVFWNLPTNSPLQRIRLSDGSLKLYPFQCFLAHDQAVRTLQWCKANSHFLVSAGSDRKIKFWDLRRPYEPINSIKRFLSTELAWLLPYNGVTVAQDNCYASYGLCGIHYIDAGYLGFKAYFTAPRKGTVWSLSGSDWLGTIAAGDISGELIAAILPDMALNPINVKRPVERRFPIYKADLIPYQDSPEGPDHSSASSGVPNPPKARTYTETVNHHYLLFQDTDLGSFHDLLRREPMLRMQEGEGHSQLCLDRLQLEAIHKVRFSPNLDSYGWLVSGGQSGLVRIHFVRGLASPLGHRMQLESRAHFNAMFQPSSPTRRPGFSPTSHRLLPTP
How it was run: (§1)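 Extracted peptides in 3% acetonitrile/0.1% formic acid ran on a 50 cm C18 column into an Orbitrap Fusion, with MaxQuant identification and spectral counting.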

MOCOS = target: T2, MOCOS (human, UniProt Q96EN8 1-888); assay: IP/MS, LZTR1 R810W-FLAG, U87
T2 sequence (looked up): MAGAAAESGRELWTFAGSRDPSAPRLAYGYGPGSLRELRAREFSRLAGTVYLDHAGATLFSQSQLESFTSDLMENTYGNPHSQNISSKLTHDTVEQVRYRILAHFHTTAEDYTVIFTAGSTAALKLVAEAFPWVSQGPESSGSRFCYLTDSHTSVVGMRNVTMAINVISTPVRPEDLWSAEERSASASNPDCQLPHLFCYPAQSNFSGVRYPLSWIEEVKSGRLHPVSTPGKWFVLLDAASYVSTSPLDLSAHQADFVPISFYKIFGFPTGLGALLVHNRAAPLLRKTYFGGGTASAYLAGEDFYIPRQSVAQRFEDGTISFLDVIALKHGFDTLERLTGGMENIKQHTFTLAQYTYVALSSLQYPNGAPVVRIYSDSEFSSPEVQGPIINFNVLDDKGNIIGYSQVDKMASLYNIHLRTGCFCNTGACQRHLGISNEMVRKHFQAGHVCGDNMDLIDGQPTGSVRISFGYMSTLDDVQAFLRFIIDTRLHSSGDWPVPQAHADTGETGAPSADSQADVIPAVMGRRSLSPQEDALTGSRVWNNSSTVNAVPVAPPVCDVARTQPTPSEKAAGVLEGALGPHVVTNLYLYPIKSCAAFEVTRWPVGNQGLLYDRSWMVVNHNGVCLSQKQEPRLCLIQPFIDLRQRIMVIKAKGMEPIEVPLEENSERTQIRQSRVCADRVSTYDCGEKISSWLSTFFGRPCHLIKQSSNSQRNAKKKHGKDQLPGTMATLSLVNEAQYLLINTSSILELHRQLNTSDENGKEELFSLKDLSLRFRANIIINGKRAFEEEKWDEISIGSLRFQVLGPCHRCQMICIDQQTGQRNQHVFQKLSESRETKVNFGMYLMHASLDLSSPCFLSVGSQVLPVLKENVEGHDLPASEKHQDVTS
How it was run: as §1

B1: LZTR1 R810W-FLAG (other, human, UniProt Q8N653 1-840, looked up)
chain: MAGPGSTGGQIGAAALAGGARSKVAPSVDFDHSCSDSVEYLTLNFGPFETVHRWRRLPPCDEFVGARRSKHTVVAYKDAIYVFGGDNGKTMLNDLLRFDVKDCSWCRAFTTGTPPAPRYHHSAVVYGSSMFVFGGYTGDIYSNSNLKNKNDLFEYKFATGQWTEWKIEGRLPVARSAHGATVYSDKLWIFAGYDGNARLNDMWTIGLQDRELTCWEEVAQSGEIPPSCCNFPVAVCRDKMFVFSGQSGAKITNNLFQFEFKDKTWTRIPTEHLLRGSPPPPQRRYGHTMVAFDRHLYVFGGAADNTLPNELHCYDVDFQTWEVVQPSSDSEVGGAEVPERACASEEVPTLTYEERVGFKKSRDVFGLDFGTTSAKQPTQPASELPSGRLFHAAAVISDAMYIFGGTVDNNIRSGEMYRFQFSCYPKCTLHEDYGRLWESRQFCDVEFVLGEKEECVQGHVAIVTARSRWLRRKITQARERLAQKLEQEAAPVPREAPGVAAGGARPPLLHVAIREAEARPFEVLMQFLYTDKIKYPRKGHVEDVLLIMDVYKLALSFQLCRLEQLCRQYIEASVDLQNVLVVCESAARLQLSQLKEHCLNFVVKESHFNQVIMMKEFERLSSPLIVEIVRRKQQPPPRTPLDQPVDIGTSLIQDMKAYLEGAGAEFCDITLLLDGHPRPAHKAILAARSSYFEAMFRSFMPEDGQVNISIGEMVPSRQAFESMLRYIYYGEVNMPPEDSLYLFAAPYYYGFYNNRLQAYCKQNLEMNVTVQNVLQILEAADKTQALDMKRHCLHIIVHQFTKVSKLPTLWSLSQQLLLDIIDSLASHISDKQCAELGADI
notes: Stably expressed in U87 cells by lentivirus; also called LZTR1-FLAG-R810W; LZTR1 RW; not shown: FLAG tag
B1: binds (GTF3C2); binds (MOCOS).
